Reference: the nanobody polyreactivity screen of Harvey et al. (2022)

Assay: yeast display, Sf9 membrane polyspecificity reagent, FACS + sequencing; frameworks hold sequencing errors
Outline: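 Synthetic nanobody libraries on Saccharomyces cerevisiae BJ5465 were galactose-induced for 36–48 hours, stained 1 hour at 4 °C with 10% biotinylated, detergent-solubilized Sf9 membrane reagent and enriched on streptavidin microbeads. FACS then separated cells into low and high (top ~1%) gates by anti-HA (expression) and streptavidin (reagent binding) fluorescence. Genes were colony-PCR amplified, MiSeq 2 × 250 sequenced and CDR-length filtered. A clone's polyreactivity label is that of its gate of origin.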

Row | Sequence | polyreactivity (PSR sort gate)
1 | QVQLVESGGGLVQAGGSLRLSCAASGNIFHKNAMGWYSQAPGKERELVASISWSGGSTYYADSVKGRFTISRDNAKNTVYLQMKSLKPEDTAVYYCATDAFGYPGNRYALNDYWGQGTQVTVSS | low polyreactivity
2 | QVQLVESGGGLVQAGGSLRLSCAASGNIFIKNAMGWYRQAPGKERELVAAISFSGGSTYYADSVKGRFTISRDNAKNTVYLQMNSLKPEDTAVYYCNAVRRQARQYDYWGQGTQVTVSS | high polyreactivity
3 | QVQLVESGGGLVQAGGSLRLSCAASGNIFIYNAMGWNRQAPGKERELVAAISVSGGDTYYADSVKGRFTISRDNAKYTVYLQLNSLKPEDTAVYYCAAEAEYIELDYWGQGTQVTVSS | low polyreactivity
4 | QVQLVESGGGLVQAGGSLRLSCAASGNIFPAYAMGWYRQAPGKERELVAAISKSGGRTYYAESVKGRFTISRDNAKNTVYLQMNSLKQEDTAVYYALLTVRRAVPYSVRYDYWGQGTQVTVSS | high polyreactivity
5 | QVQLVESGGGLVQAGGSLRLSCAASGNIFPIYPMGWYRQAPGKERELVASIYRGGTTYYADSVKGRFTISRDNAKNTVYLQMNSLKPEETAVYYCAVYSPRLRRVHTRGYWGQGTQVTVSS | high polyreactivity
6 | QVQLVESGGGLVQAGGSLRLSCAASGNIFPPNTMGWYRQAPGKERELVAVITWSDGGTYADSVKGRFTISRDNAKNTVYLQMNSLKPEDSAVYYCNADYYFAAPKGEYTAWYDYWGQGTQVTVSS | low polyreactivity
7 | QVQLVESGGGLVQAGGSLRLSCAASGNIFPPYAMGWYRQAPGKERELVAAITRSGASTYYADSVKGRFTISRDNAKNTVYLQMNSLKPEDTAVYYCAVGVPGGYWKYYYWGQGTQVTVSS | high polyreactivity
8 | QVQLVESGGGLVQAGGSLRLSCAASGNIFPWYAMGWYRQAPGKERELVASITVSGGRTYYADSVKGRFTISRDNAKNTVYLQMNSLKPEDTAVYYCNKYLVWYVPGAYNSWGQGTQVTVSS | high polyreactivity
9 | QVQLVESGGGLVQAGGSLRLSCAASGNIFPYYPMGWYRQAPGKERELVASISRSGGSTYYADSVKGRFTISRDNAKNTVYLQMNSLKPEDTAVYYCAKRTPYYGFGFFHPARGYGYWGQGTQVTVSS | low polyreactivity
10 | QVQLVESGGGLVQAGGSLRLSCAASGNIFRGYTMGWSRQAPGKERELVAAISYSGGSTYADSVKGRFTISRDNAKNTVYLQMNSLKPEDTAVYYCNTDTSVDVRFDYWGQGTQVTVSS | low polyreactivity
11 | QVQLVESGGGLVQAGGSLRLSCAASGNIFRPYTMGWYRQAPGKERELVARISSGGSTNYADSVKGRFTISRDNAKNTVYLQMNSLKPEDTAVYYCNTVFRGSSTRGYDYWGQGTQVTVSS | high polyreactivity
12 | QVQLVESGGGLVQAGGSLRLSCAASGNIFRRYAMGWYRQAPGKERELVAAISISGGNTYYADSVKGRFTISRDNAKNTVYLQMNSLKPEDTAVYYCNAVGRYSEYGYWGQGTQVTVSS | high polyreactivity
13 | QVQLVESGGGLVQAGGSLRLSCAASGNIFRYYTMGWYRQAPGKERELVATISYADSVKGRFTISRDNAKNTVYLQMNSLKPEDTAVYYCKADFAPWDKQDYPYDYDYWGQGTQVTVSS | low polyreactivity
14 | QVQLVESGGGLVQAGGSLRLSCAASGNIFSDNAMGWYRQAPGKERELVAAITSGGSTIYADSVKGRFTISRDNAKNTVYLQMNSLKPEDTAVYYCAADISYRHFLFDFWGQGTQVTVSS | low polyreactivity
15 | QVQLVESGGGLVQAGGSLRLSCAASGNIFSDYAMGWYRQAPGKERELVAAISSGGNTNYADSVKRRFSISRDNAKNTVYLEMNSLKPEDTAVYYCAAVYNTTYTLLPEYSDVKYYYWGQGTQVTVSS | low polyreactivity
16 | QVQLVESGGGLVQAGGSLRLSCAASGNIFSFNDMGWYRQAPGKERELVAAITSSDSTNYADSVKGRFTISRDNAKNTVYLQMNSLKPEDTAVFYCATEILTAARDTVVYQFYLGYYYWGQGTQVTVSS | low polyreactivity

Row | Sequence | polyreactivity (PSR sort gate)
17 | QVQLVESGGGLVQAGGSLRLSCAASGNIFSFNDMGWYRQAPGKERELVAGITTSESTNYADSVKGRFTISRDNAKNTVYLQMNSLKPEDTAVYYCATEILTAARDTVVYQFYLGYYYWGQGTQVTVSS | low polyreactivity
18 | QVQLVESGGGLVQAGGSLRLSCAASGNIFSRNAMGWYRQAPGKERELVASIDNSTSGTYYADSVKGRFTISRDNAKNTVYLQMKSLKPEDTAVYYCAATPLVDGSSIPREGDYWGQGTQVSVSS | low polyreactivity
19 | QVQLVESGGGLVQAGGSLRLSCAASGNIFSRYAMGWYRQAPGKERELVASISRGGRTNYADSVKGRFTISRDNAKNTVYLQMNSLKPEDTAVYYCAKGGKGYWHPTGPYPFNYWGQGTQVTVSS | high polyreactivity
20 | QVQLVESGGGLVQAGGSLRLSCAASGNIFSSNAMGWYRQAPGKERELDAAITRSGGSTYYADSVKGRFTISRDNAKNTVYLQMNSLKPEDTAVYYCAARHYPRNSWGYDYWGQGTQVTVSS | high polyreactivity
21 | QVQLVESGGGLVQAGGSLRLSCAASGNIFSYNAMAWYRQAPGKERELVAAITTSSGRTYYADSVKGRFTISRDIAKNTVYLQMNSLKPEVTAVYYCNAVQRYQMGYWGQGTQVTVSS | high polyreactivity
22 | QVQLVESGGGLVQAGGSLRLSCAASGNIFSYNAMGWYRQAPGKEREFVAAITFSSDRTYYADSVKGRFTISRDNAKNTVYLQMNSLKPEDTAVYYCAADTRYINYKRYYYWGQGTQVTVSS | high polyreactivity
23 | QVQLVESGGGLVQAGGSLRLSCAASGNIFSYYAMGWYRQAPGKERELVAAIYTGGSTYYADSVKGRFTISRDNAKNTVYLQMNSLKPEDTEVYYCAASGLNLRQDYDYWGQGTQVTVSS | low polyreactivity
24 | QVQLVESGGGLVQAGGSLRLSCAASGNIFVEYAMGWYRPAPGKERELVAAITNSGGRTHYSDSVKGRFTISRDNAKNTVYLQMNSLKPEDSEVYFCAAPTKYRSRRYYWGQGTQVTVSS | high polyreactivity
25 | QVQLVESGGGLVQAGGSLRLSCAASGNIFVEYAMGWYRQAPGKERELVAAITNSGGRTHYADSVKGRFTISRDNAKNTVYLQMNSLKPEDTAVYYCAAPTKYRSRRYYWGQGTQVTVSS | high polyreactivity
26 | QVQLVESGGGLVQAGGSLRLSCAASGNIFVFYVMGWYRQAPGKERELVASISSTGNTYYADSVKGRFTISRDNAKNTVYLQMNSLKPEDTAVYYCAADSHQNVSGWLRWPRMDYWGQGTQVTVSS | low polyreactivity
27 | QVQLVESGGGLVQAGGSLRLSCAASGNIFVINAMGWYRQAPGKERELVAAINWTGGNTYYADSVKGRFTISRDNAKNTFYLQMNSLKPEDTAVYYSAADRRWFVWGLGYWGQGTQVTVSS | low polyreactivity
28 | QVQLVESGGGLVQAGGSLRLSCAASGNIFVRYTMGWYRQAPGTERELVARITSGGSTYYADSVKGRFTISRDNAKNTVYLQMNSLKPEDTAVYYCAAAIGTRLYSYYYWGQGTQVTVSS | high polyreactivity
29 | QVQLVESGGGLVQAGGSLRLSCAASGNIFVTYAMGWYRQAPGKERELVAGITSSDDSTYYADSVKGRFTISRDNAKNTVYLQMNSLKPEDPAVYYCATYYWEVGIGQYYYWGQGTQVTVSS | low polyreactivity
30 | QVQLVESGGGLVQAGGSLRLSCAASGNIFVVNAMGWYRQAPGKERELVAGITTNGGRTFYADSVKGRFTISRDNAKNTVYLQINSLKPEDTAVYYWNARHGRHRRTRFAKYDYWGQGTQVTVSS | high polyreactivity
31 | QVQLVESGGGLVQAGGSLRLSCAASGNIFYDYGMGWYRQAPGKERELVAGISSVDHTYYADSVKGRFTISRDNAKNTVYLQMNSLKPEDTAVYYCARDTELYVRWLDYWGQGTQVTVSS | low polyreactivity
